Consider five proteins from patent US20170306346.

In one series the target is T1, His-AtUBC2, P42745.
T1 chain: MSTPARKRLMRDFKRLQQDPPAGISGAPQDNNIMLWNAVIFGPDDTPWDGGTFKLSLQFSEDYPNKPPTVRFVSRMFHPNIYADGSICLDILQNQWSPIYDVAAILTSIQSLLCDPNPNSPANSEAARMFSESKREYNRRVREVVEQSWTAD

Another series addresses T2, His-AtUBC31.
T2 sequence (Q9C8X7 1-154, looked up): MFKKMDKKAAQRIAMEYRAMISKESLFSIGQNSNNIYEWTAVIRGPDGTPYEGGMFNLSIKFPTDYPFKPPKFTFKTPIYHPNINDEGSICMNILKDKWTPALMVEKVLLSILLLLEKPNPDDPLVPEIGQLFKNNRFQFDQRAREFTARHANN

Another series concerns the target T3, His-AtUBC36, Q9FZ48.
T3 chain: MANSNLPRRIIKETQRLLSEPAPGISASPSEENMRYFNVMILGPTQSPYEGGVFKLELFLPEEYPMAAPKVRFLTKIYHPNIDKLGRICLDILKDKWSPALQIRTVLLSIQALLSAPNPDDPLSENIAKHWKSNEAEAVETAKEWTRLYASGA

GST-MYC2-HA, Q39204, sequence (Q39204 whole entry): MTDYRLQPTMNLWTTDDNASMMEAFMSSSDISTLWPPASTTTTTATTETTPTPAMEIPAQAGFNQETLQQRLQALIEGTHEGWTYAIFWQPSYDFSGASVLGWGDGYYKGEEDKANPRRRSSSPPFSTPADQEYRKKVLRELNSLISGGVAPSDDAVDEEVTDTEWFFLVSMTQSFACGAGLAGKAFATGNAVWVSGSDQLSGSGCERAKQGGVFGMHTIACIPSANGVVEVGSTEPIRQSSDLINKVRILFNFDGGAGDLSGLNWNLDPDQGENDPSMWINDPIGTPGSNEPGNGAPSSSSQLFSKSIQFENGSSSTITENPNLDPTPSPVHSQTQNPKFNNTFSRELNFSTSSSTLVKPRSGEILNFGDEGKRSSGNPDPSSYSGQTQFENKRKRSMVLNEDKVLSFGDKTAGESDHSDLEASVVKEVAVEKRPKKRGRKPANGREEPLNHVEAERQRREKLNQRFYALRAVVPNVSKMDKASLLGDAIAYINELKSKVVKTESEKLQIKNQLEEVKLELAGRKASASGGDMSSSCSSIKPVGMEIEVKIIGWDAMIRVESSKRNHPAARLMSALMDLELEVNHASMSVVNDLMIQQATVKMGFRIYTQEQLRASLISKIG
myc-MYC2, Q39204, sequence (Q39204 whole entry): as above
His-AtUBC8, P35131, sequence (P35131 whole entry): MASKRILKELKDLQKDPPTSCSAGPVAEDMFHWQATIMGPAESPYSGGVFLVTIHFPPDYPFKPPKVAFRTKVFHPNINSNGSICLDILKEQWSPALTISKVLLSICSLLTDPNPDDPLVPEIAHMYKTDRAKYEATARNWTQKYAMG

B1: MBP-PUB11-myc (protein)
chain: MAGGIVSPASLLDLIADIVEIPLNTGMFKKDCADLTRRVCLLTHLLEEIRDSTPIDSAASSSSENDWWSDLVVGLQAAKRLLSTARFQARDSSDGAAKRISFQFQCVTWKLEKALSNLPYDLYDISDEVGEQVELARSQLRRAMQRYGSLNSNKFSSALSEPMERDGFSNVIKIKAEEKLESVSETLHFGEEEEKQSSPPLRRSSSISLAYYLSKDADTDRLDKMVNKNTDESKKSDKLTIPVDFLCPVSLELMKDPVIVATGQTYERAYIQRWIDCGNLTCPKTQQKLENFTLTPNYVLRSLISRWCAEHNIEQPAGYINGRTKNSGDMSVIRALVQRLSSRSTEDRRNAVSEIRSLSKRSTDNRILIAEAGAIPVLVNLLTSEDVATQENAITCVLNLSIYENNKELIMFAGAVTSIVQVLRAGTMEARENAAATLFSLSLADENKIIIGGSGAIPALVDLLENGTPRGKKDAATALFNLCIYHGNKGRAVRAGIVTALVKMLSDSTRHRMVDEALTILSVLANNQDAKSAIVKANTLPALIGILQTDQTRNRENAAAILLSLCKRDTEKLITIGRLGAVVPLMDLSKNGTERGKRKAISLLELLRKACQ
With B1, the “in vitro auto-ubiquitination of PUB11 with the UBC as E2” value with His-AtUBC2, P42745 is “Each of these 4 UBCs was capable of supporting auto-ubiquitination of PUB10 and PUB11 in vitro although with varying degrees of activity”; with His-AtUBC31 it was “Each of these 4 UBCs was capable of supporting auto-ubiquitination of PUB10 and PUB11 in vitro although with varying degrees of activity”; with His-AtUBC8, P35131, “Each of these 4 UBCs was capable of supporting auto-ubiquitination of PUB10 and PUB11 in vitro although with varying degrees of activity ... The highest activity was obtained when UBC8 served as the ubiquitin conjugating enzyme”; in the series with His-AtUBC36, Q9FZ48 it was “Each of these 4 UBCs was capable of supporting auto-ubiquitination of PUB10 and PUB11 in vitro although with varying degrees of activity”. Further, the “in vitro ubiquitination of MYC2 (E1, E2, Ub; Western blot)” value in the series with GST-MYC2-HA, Q39204 is “MYC2 is a substrate of PUB11 E3 ligase”.

B2: HA-PUB10 (protein)
chain: MAGGAITPDSLIGLIAEINEIPGNFGLFKKDCSDLARRVGLLTHLIEEIRDSSPPSESDASSSLNSHECDWWSDLVVGLQAAKRLLSSATSFQARESSDGAAKRISFQFQCVTWKLEKALGDLTYDRYDISDEVREQVELARLQLRRAMQRYGSLNSKKFSSGLSEPMEKDASSNRKVIEKLESIPETVHSLSDEKKFESPPPWKSSSVSLAFFLSKDGDDERLEKAVTENSDDSQKSDNLTIPEDFLCPISLELMKDPAIVSTGQTYERSFIQRWIDCGNLSCPKTQQKLENFTLTPNYVLRSLISQWCTKHNIEQPGGYMNGRTKNSDGSFRDLSGDMSAIRALVCKLSSQSIEDRRTAVSEIRSLSKRSTDNRILIAEAGAIPVLVKLLTSDGDTETQENAVTCILNLSIYEHNKELIMLAGAVTSIVLVLRAGSMEARENAAATLFSLSLADENKIIIGASGAIMALVDLLQYGSVRGKKDAATALFNLCIYQGNKGRAVRAGIVKPLVKMLTDSSSERMADEALTILSVLASNQVAKTAILRANAIPPLIDCLQKDQPRNRENAAAILLCLCKRDTEKLISIGRLGAVVPLMELSRDGTERAKRKANSLLELLRKSSRKLGSL
For the protein B2, the “myc-MYC2 protein level in double transgenic Arabidopsis seedlings (Western blot)” value with myc-MYC2, Q39204 was “induced expression of HA-PUB10 clearly resulted in a decrease in myc-MYC2 level”.

B3: MBP-PUB10 (C249A)-6myc (protein)
chain: MAGGAITPDSLIGLIAEINEIPGNFGLFKKDCSDLARRVGLLTHLIEEIRDSSPPSESDASSSLNSHECDWWSDLVVGLQAAKRLLSSATSFQARESSDGAAKRISFQFQCVTWKLEKALGDLTYDRYDISDEVREQVELARLQLRRAMQRYGSLNSKKFSSGLSEPMEKDASSNRKVIEKLESIPETVHSLSDEKKFESPPPWKSSSVSLAFFLSKDGDDERLEKAVTENSDDSQKSDNLTIPEDFLAPISLELMKDPAIVSTGQTYERSFIQRWIDCGNLSCPKTQQKLENFTLTPNYVLRSLISQWCTKHNIEQPGGYMNGRTKNSDGSFRDLSGDMSAIRALVCKLSSQSIEDRRTAVSEIRSLSKRSTDNRILIAEAGAIPVLVKLLTSDGDTETQENAVTCILNLSIYEHNKELIMLAGAVTSIVLVLRAGSMEARENAAATLFSLSLADENKIIIGASGAIMALVDLLQYGSVRGKKDAATALFNLCIYQGNKGRAVRAGIVKPLVKMLTDSSSERMADEALTILSVLASNQVAKTAILRANAIPPLIDCLQKDQPRNRENAAAILLCLCKRDTEKLISIGRLGAVVPLMELSRDGTERAKRKANSLLELLRKSSRKLGSL
On to B3, for which the “in vitro ubiquitination of MYC2 (E1, AtUBC8 as E2, His-ubiquitin; Western blot)” value in the series with GST-MYC2-HA, Q39204 is “The ubiquitination activity was greatly reduced when cysteine 249 was mutated to alanine 249”.

B4: HA-PUB10 (C249A) (protein)
chain: MAGGAITPDSLIGLIAEINEIPGNFGLFKKDCSDLARRVGLLTHLIEEIRDSSPPSESDASSSLNSHECDWWSDLVVGLQAAKRLLSSATSFQARESSDGAAKRISFQFQCVTWKLEKALGDLTYDRYDISDEVREQVELARLQLRRAMQRYGSLNSKKFSSGLSEPMEKDASSNRKVIEKLESIPETVHSLSDEKKFESPPPWKSSSVSLAFFLSKDGDDERLEKAVTENSDDSQKSDNLTIPEDFLAPISLELMKDPAIVSTGQTYERSFIQRWIDCGNLSCPKTQQKLENFTLTPNYVLRSLISQWCTKHNIEQPGGYMNGRTKNSDGSFRDLSGDMSAIRALVCKLSSQSIEDRRTAVSEIRSLSKRSTDNRILIAEAGAIPVLVKLLTSDGDTETQENAVTCILNLSIYEHNKELIMLAGAVTSIVLVLRAGSMEARENAAATLFSLSLADENKIIIGASGAIMALVDLLQYGSVRGKKDAATALFNLCIYQGNKGRAVRAGIVKPLVKMLTDSSSERMADEALTILSVLASNQVAKTAILRANAIPPLIDCLQKDQPRNRENAAAILLCLCKRDTEKLISIGRLGAVVPLMELSRDGTERAKRKANSLLELLRKSSRKLGSL
Consider B4, for which, in the series with myc-MYC2, Q39204, the “myc-MYC2 protein level in double transgenic Arabidopsis seedlings (Western blot)” value is “induced expression of PUB10 (C249A) mutant protein resulted in an increase of MYC2 level”.

B5: MBP-PUB10-6myc (protein)
chain: MAGGAITPDSLIGLIAEINEIPGNFGLFKKDCSDLARRVGLLTHLIEEIRDSSPPSESDASSSLNSHECDWWSDLVVGLQAAKRLLSSATSFQARESSDGAAKRISFQFQCVTWKLEKALGDLTYDRYDISDEVREQVELARLQLRRAMQRYGSLNSKKFSSGLSEPMEKDASSNRKVIEKLESIPETVHSLSDEKKFESPPPWKSSSVSLAFFLSKDGDDERLEKAVTENSDDSQKSDNLTIPEDFLCPISLELMKDPAIVSTGQTYERSFIQRWIDCGNLSCPKTQQKLENFTLTPNYVLRSLISQWCTKHNIEQPGGYMNGRTKNSDGSFRDLSGDMSAIRALVCKLSSQSIEDRRTAVSEIRSLSKRSTDNRILIAEAGAIPVLVKLLTSDGDTETQENAVTCILNLSIYEHNKELIMLAGAVTSIVLVLRAGSMEARENAAATLFSLSLADENKIIIGASGAIMALVDLLQYGSVRGKKDAATALFNLCIYQGNKGRAVRAGIVKPLVKMLTDSSSERMADEALTILSVLASNQVAKTAILRANAIPPLIDCLQKDQPRNRENAAAILLCLCKRDTEKLISIGRLGAVVPLMELSRDGTERAKRKANSLLELLRKSSRKLGSL
In the case of B5, the “in vitro auto-ubiquitination of PUB10 with the UBC as E2” value with His-AtUBC2, P42745 is “Each of these 4 UBCs was capable of supporting auto-ubiquitination of PUB10 and PUB11 in vitro although with varying degrees of activity”; with His-AtUBC31, “Each of these 4 UBCs was capable of supporting auto-ubiquitination of PUB10 and PUB11 in vitro although with varying degrees of activity”; in the series with His-AtUBC8, P35131, “Each of these 4 UBCs was capable of supporting auto-ubiquitination of PUB10 and PUB11 in vitro although with varying degrees of activity ... The highest activity was obtained when UBC8 served as the ubiquitin conjugating enzyme”; with His-AtUBC36, Q9FZ48, “Each of these 4 UBCs was capable of supporting auto-ubiquitination of PUB10 and PUB11 in vitro although with varying degrees of activity”. Moreover, in the series with GST-MYC2-HA, Q39204, the “in vitro ubiquitination of MYC2 (E1, AtUBC8 as E2, His-ubiquitin; Western blot)” value is listed as “MYC2 was indeed poly-ubiquitinated by PUB10 in vitro”.
